Measurements reported in article doi:10.1101/503680 (bioRxiv, 2018).

Molecular target: His6-KIF3A-motor (mouse, UniProt P28741 1-350)
Assay: SPR

Chain of His6-KIF3A-motor (P28741 1-350): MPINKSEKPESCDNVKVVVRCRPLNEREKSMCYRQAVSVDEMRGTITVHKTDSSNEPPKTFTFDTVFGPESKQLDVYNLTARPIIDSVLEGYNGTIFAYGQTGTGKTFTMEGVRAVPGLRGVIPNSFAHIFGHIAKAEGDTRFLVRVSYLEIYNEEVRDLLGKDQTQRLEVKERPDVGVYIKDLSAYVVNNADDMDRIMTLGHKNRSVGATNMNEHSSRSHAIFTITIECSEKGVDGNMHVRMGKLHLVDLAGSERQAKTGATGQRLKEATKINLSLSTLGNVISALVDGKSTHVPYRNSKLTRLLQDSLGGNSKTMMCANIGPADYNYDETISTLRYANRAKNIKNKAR

- Kd: 48.4 nM
B1: GST-KIF3A-S689A-Tail (domain or fragment, mouse, UniProt P28741 598-701, looked up)
chain: IPQDYQEMIENYVHWNEDIGEWQLKCVAYTGNNMRKQTPVPDKKERDPFEVDLSHVYLAYTEESLRQSLMKLERPRTSKGKARPKMGRRKRAAKPETVIDSLLQ
